Data as given in patent US20240150475A1 (Molecular Partners, published 2024).
Positions count from the first letter of the chain named. One block for each binder: values may come before it.

Columns and labels:
[1] = target: T1, biotinylated extracellular domains of human CD123 with C-terminal Fc tag and Avi tag (bio.hCD123-Fc(kih)-Avi) (human, UniProt P26951 19-303, biotinylated with BirA-GST (Avi tag)); test: SPR (ProteOn XPR36), bio.hCD123 immobilised on NLC chip, DARPin in TCE format injected at 50 nM, single trace
T1 construct: Bought from Evitria; the second Fc chain and the number of CD123 arms are not described; also called biotinylated hCD123; recombinant human CD123 target; not shown: Avi tag
T1 sequence: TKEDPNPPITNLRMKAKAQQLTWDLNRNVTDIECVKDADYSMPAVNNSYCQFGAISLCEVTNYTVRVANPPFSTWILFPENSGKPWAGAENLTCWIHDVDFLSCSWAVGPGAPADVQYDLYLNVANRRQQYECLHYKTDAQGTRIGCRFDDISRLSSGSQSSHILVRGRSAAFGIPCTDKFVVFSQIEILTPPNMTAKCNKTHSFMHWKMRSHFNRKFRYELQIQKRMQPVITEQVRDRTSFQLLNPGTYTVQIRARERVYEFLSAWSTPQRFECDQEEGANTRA
Experimental: SPR measurements were performed using a ProteOn XPR36 instrument (BioRad). The running buffer was PBS pH 7.4 containing 0.005% Tween 20® (PBST). The bio.hCD123 target was immobilized on a NLC chips (BioRad) to a level of 600 RU. The interactions of the 96well purified CD123-specific ankyrin repeat proteins in TCE format to bio. hCD123 were measured by injecting the DARPin® molecules at 50 nM with an association of 120 s and dissociation of 1200 s using a constant flow of 100 μl/min. Some DARPin proteins were reinjected using a dissociation of 600 s. The target was regenerated between the individual measurements using 10 mM Glycine pH2.5. The signals were double referenced against the running buffer (PBST) treated control lane of L1 and A6.
Dissociation constants (KD) were calculated from the estimated on- and off-rates using standard procedures known to the person skilled in the art. KD values were determined by single trace SPR. The values in Table 2a are averages of multiple replicates.

[2] = target: T2, CD123 expressed on the surface of Molm-13 (Molm-13 N1) tumor cells (human, UniProt P26951 19-378); test: flow cytometry on CD123-expressing Molm-13 N1 tumor cells, monospecific format
T2 construct: whole, on cells; also called CD123-expressing tumor cells; CD123 expressed on tumor cells
Experimental: Binding of binding proteins of the invention to CD123 expressed on the surface of tumor cells was analyzed by fluorescence activated cell sorting (FACS) flow cytometry. For this purpose, CD123 expressing tumor cells (Molm-13 N1) were seeded at 100′000 cells per well in a 96 well plate. DARPin protein #2, DARPin protein #3, DARPin protein #9, DARPin protein #12, DARPin protein #13 and DARPin protein #14, in monospecific format, were titrated down in 1:5 dilution ratio starting at 2000 nM. Tumor cells were resuspended with diluted DARPin proteins and incubated for 60 minutes at 4° C. The assay was performed in PBS including 2% fetal bovine serum without human serum albumin (HSA). After washing twice with Phosphate Buffer saline (PBS), DARPin® protein specific tumor cell binding was detected by adding unlabeled primary anti-rabbit DARPin® antibody (anti-rabbit 1-1-1 antibody, CePower) at 2 ug/ml. An incubation step of at least 30 minutes at 4° C. followed. Afterwards, cells were washed with PBS and a secondary goat anti-rabbit antibody labelled with Alexa Fluor 488 antibody (ThermoFisher) at 2 ug/ml was added. The same incubation conditions applied. Finally, the cells were washed twice and resuspended in Cytofix fixation buffer (BD Biosciences) for 15 min at room temperature (RT).

[3] = target: T1, biotinylated extracellular domains of …; test: SPR (ProteOn), bio.hCD123 on neutravidin-coated GLC chip, DARPin 100-1.2 nM, 1:1 Langmuir fit
Experimental: Moreover, the binding affinities of three additional purified ankyrin repeat proteins on recombinant human CD123 target were measured and analyzed with a procedure as described above for DARPin proteins #1, #3 to #9. Briefly, neutravidin was precoated on a GLC chip (BioRad) to a level of 6000 RU. In a second step, bio.hCD123 was immobilized to a level of 1030 RU. A serial dilution of 100, 33, 11, 3.7 and 1.2 nM was used to measure the binding of DARPin protein #12, DARPin protein #13 and DARPin protein #14 to bio.hCD123. For all described measurements, an association of 120 s and dissociation of 1200 s using a constant flow of 100 μl/min were applied. The CD123 target was regenerated with two different conditions (10 mM Glycine pH2.0 and 4M MgCl2) each applied for 30s. The signals were double referenced against interspot and the running buffer (PBST-PBS pH 7.4 containing 0.005% Tween 20®) treated control lane A6. The 1:1 Langmuir model was used for the fitting.
KD values were calculated from the estimated on- and off-rates using standard procedures known to the person skilled in the art. The values in Table 2b are averages of multiple replicates.

Kd [1]: 12 nM
B1: DARPin® protein #1 (in TCE format) (designed binder, not shown: small tags and cut ends)
chain: MRGSHHHHHHGSDLGKKLLEAALEGQDDEVRELLKAGADVNAKDQEGYTPLHLAAALGHLEIVEVLLKAGADVNAKDSIGRTPLHLAAYKGHLEIVEVLLKAGADVNAQDLLGETPADLAAEQGHEDIAEVLQKAA

Kd [1]: 4.5 nM
B2: DARPin® protein #6 (in TCE format) (designed binder, not shown: small tags and cut ends)
chain: B1 chain with K16E, G80D, L111A, L112A, E114Q, E122A, Q123L

EC50 [2]: 0.41 nM
Kd [3]: 0.02 nM
B3: DARPin® protein #13 (designed binder)
chain: DLGKKLLEAALEGQLDEVRELLKAGADVNAKDQEGYTPLHLAAALGHLEIVEVLLKAGADVNAKDQIGRTPLHLAAYKGHLEIVEVLLKAGADVNAQDIIGQTPADLAAQRGHQDIAEVLQKAA

EC50 [2]: 1.3 nM
Kd [3]: 0.02 nM
B4: DARPin® protein #14 (designed binder)
chain: B3 chain with E8Q, Q33I

EC50 [2]: 29 nM
B5: DARPin® protein #2 (designed binder)
chain: B3 chain with Q66S, I99L, I100L, Q102E, Q110E, R111Q

Kd [1]: 45 nM
B6: DARPin® protein #4 (in TCE format) (designed binder, not shown: small tags and cut ends)
chain: MRGSHHHHHHGSDLGKKLLQAARAGQLDEVRELLKAGADVNAKDEYGATPLHLAAYSGHLEIVEVLLKAGADVNAKDEWGRTPLHVAALSGHLEIVEVLLKAGADVNAKDHQGRTPLHLAALWGHLEIVEVLLKAVADVNAQDKSGKTPADLAARAGHQDIAEVLQKAA

EC50 [2]: 77 nM
B7: DARPin® protein #3 (monospecific format) (designed binder)
chain: DLGKKLLQAARAGQLDEVRELLKAGADVNAKDQYGRTPLHLAAIKGHLEIVEVLLKAGADVNAKDSLGYTPLHLAAVEGPLEIVEVLLKAGADVNAKDAYGQTPLHIAAAWGHLEIVEVLLKAVADVNAQDKSGKTPADLAARAGHQDIAEVLQKAA

Kd [1]: 0.93 nM
B8: DARPin® protein #7 (in TCE format) (designed binder, not shown: small tags and cut ends)
chain: MRGSHHHHHHGSDLGKKLLQAARAGQLDEVRELLKAGADVNAKDEYGLTPLHLAAEFGHLEIVEVLLKAGADVNAKDANGHTPLHLAAAYDHLEIVEVLLKAGADVNAKDTSGKTPLHLAAQYGHLEIVEVLLKAGADVNAQDKSGKTPADLAARAGHQDIAEVLQKAA

Kd [1]: 0.52 nM
B9: DARPin® protein #3 (in TCE format) (designed binder, not shown: small tags and cut ends)
chain: MRGSHHHHHHGSDLGKKLLQAARAGQLDEVRELLKAGADVNAKDQYGRTPLHLAAIKGHLEIVEVLLKAGADVNAKDSLGYTPLHLAAVEGPLEIVEVLLKAGADVNAKDAYGQTPLHIAAAWGHLEIVEVLLKAVADVNAQDKSGKTPADLAARAGHQDIAEVLQKAA

EC50 [2]: 7.9 nM
B10: DARPin® protein #9 (monospecific format) (designed binder)
chain: DLGWKLLDAAEIGQDDEVRILLAAGADVNAKDKQGITPLHIAAAHGHLEIVEVLLKAGADVNAKDEIGRTPLHLAAFKGHLEIVEVLLKAGADVNAQDIIGETPADLAAVRGHEDIAEVLQKAA

EC50 [2]: 3.2 nM
Kd [3]: 0.49 nM
B11: DARPin® protein #12 (designed binder)
chain: B10 chain with D15L, A23K, E114Q

Kd [1]: 8.5 nM
B12: DARPin® protein #5 (in TCE format) (designed binder, not shown: small tags and cut ends)
chain: MRGSHHHHHHGSDLGKKLLKAALLGQDDEVRELLKAGADVNAKDRFGYTPLHLAAWTGHLEIVEVLLKAGADVNAKDAYGWTPLHIAAHSGHLEIVEVLLKAGADVNAQDLEGETPADLAAAQGHEDIAEVLQKAA

Kd [1]: 2.1 nM
B13: DARPin® protein #9 (in TCE format) (designed binder, not shown: small tags and cut ends)
chain: MRGSHHHHHHGSDLGWKLLDAAEIGQDDEVRILLAAGADVNAKDKQGITPLHIAAAHGHLEIVEVLLKAGADVNAKDEIGRTPLHLAAFKGHLEIVEVLLKAGADVNAQDIIGETPADLAAVRGHEDIAEVLQKAA

Kd [1]: 1 nM
B14: DARPin® protein #8 (in TCE format) (designed binder, not shown: small tags and cut ends)
chain: MRGSHHHHHHGSDLGKKLLNAAHIGQDDEVRILLAAGADVNAKDIVGKTPLHIAAWLGHLEIVEVLLKAGADVNAKDDHGWTPLHIAAHVGHLEIVEVLLKAGADVNAQDNAGNTPADLVAFQGHEDIAEVLQKAA
